Source: the supplement of paper PMC11246515
± gives the standard deviation of the averaged measurements.

Experiment: total protein half-life in vivo (active degradation + dilution); higher = more stable protein
[1] = E. coli NCM3722 delta-clpP, growth: N-lim chemostat, doubling time 6 h
[2] = E. coli NCM3722 delta-hslV, growth: N-lim chemostat, doubling time 6 h
[3] = E. coli NCM3722 delta-lon, growth: N-lim chemostat, doubling time 6 h
[4] = wild type E. coli NCM3722, growth: C-lim chemostat, doubling time 3 h
[5] = wild type E. coli NCM3722, growth: C-lim chemostat, doubling time 6 h
[6] = wild type E. coli NCM3722, growth: C-lim chemostat, doubling time 12 h
[7] = wild type E. coli NCM3722, growth: N-lim chemostat, doubling time 6 h
[8] = wild type E. coli NCM3722, growth: N-lim chemostat, doubling time 12 h
[9] = wild type E. coli NCM3722, growth: P-lim chemostat, doubling time 6 h
[10] = wild type E. coli NCM3722, growth: P-lim chemostat, doubling time 12 h
[11] = E. coli NCM3722 delta-clpP delta-lon delta-hslV, growth: N-lim chemostat, doubling time 6 h
[12] = E. coli NCM3722 delta-smpB, growth: N-lim chemostat, doubling time 6 h

Sequence	total protein half-life in vivo [1] [h]	total protein half-life in vivo [2] [h]	total protein half-life in vivo [3] [h]	total protein half-life in vivo [4] [h]	total protein half-life in vivo [5] [h]	total protein half-life in vivo [6] [h]	total protein half-life in vivo [7] [h]	total protein half-life in vivo [8] [h]	total protein half-life in vivo [9] [h]	total protein half-life in vivo [10] [h]	total protein half-life in vivo [11] [h]	total protein half-life in vivo [12] [h]
MTKQVKIYHNPRCSKSRETLNLLKENGVEPEVVLYLETPADAATLRDLLKILGMNSARELMRQKEDLYKELNLADSSLSEEALIQAMVDNPKLMERPIVVANGKARIGRPPEQVLEIVG	5.8	3.65 ± 0.025	4.45 ± 0.96	3.47 ± 0.39	5.12 ± 0.37	7.332 ± 0.073	2.58 ± 0.029	4.7 ± 1.2	3.87 ± 0.41	8.07 ± 0.2	–	–
MRVNNGLTPQELEAYGISDVHDIVYNPSYDLLYQEELDPSLTGYERGVLTNLGAVAVDTGIFTGRSPKDKYIVRDDTTRDTFWWADKGKGKNDNKPLSPETWQHLKGLVTRQLSGKRLFVVDAFCGANPDTRLSVRFITEVAWQAHFVKNMFIRPSDEELAGFKPDFIVMNGAKCTNPQWKEQGLNSENFVAFNLTERMQLIGGTWYGGEMKKGMFSMMNYLLPLKGIASMHCSANVGEKGDVAVFFGLSGTGKTTLSTDPKRRLIGDDEHGWDDDGVFNFEGGCYAKTIKLSKEAEPEIYNAIRRDALLENVTVREDGTIDFDDGSKTENTRVSYPIYHIDNIVKPVSKAGHATKVIFLTADAFGVLPPVSRLTADQTQYHFLSGFTAKLAGTERGITEPTPTFSACFGAAFLSLHPTQYAEVLVKRMQAAGAQAYLVNTGWNGTGKRISIKDTRAIIDAILNGSLDNAETFTLPMFNLAIPTELPGVDTKILDPRNTYASPEQWQEKAETLAKLFIDNFDKYTDTPAGAALVAAGPKL	3.55 ± 0.13	3.29 ± 0.037	4.19 ± 0.05	3.53 ± 0.18	6.17 ± 0.42	10.5 ± 0.7	3.69 ± 0.2	5.13 ± 0.55	5.5 ± 0.58	10.7 ± 0.72	4.17 ± 0.081	3.45 ± 0.21
MIINNVKLVLENEVVSGSLEVQNGEIRAFAESQSRLPEAMDGEGGWLLPGLIELHTDNLDKFFTPRPKVDWPAHSAMSSHDALMVASGITTVLDAVAIGDVRDGGDRLENLEKMINAIEETQKRGVNRAEHRLHLRCELPHHTTLPLFEKLVQREPVTLVSLMDHSPGQRQFANREKYREYYQGKYSLTDAQMQQYEEEQLALAARWSQPNRESIAALCRARKIALASHDDATHAHVAESHQLGSVIAEFPTTFEAAEASRKHGMNVLMGAPNIVRGGSHSGNVAASELAQLGLLDILSSDYYPASLLDAAFRVADDQSNRFTLPQAVKLVTKNPAQALNLQDRGVIGEGKRADLVLAHRKDNHIHIDHVWRQGKRVF	–	–	–	–	–	–	–	–	1.05 ± 0.23	1.89 ± 0.87	–	–
MLKTIRKHGITLALFAAGSTGLTAAINQMTKTTIAEQASLQQKALFDQVLPAERYNNALAQSCYLVTAPELGKGEHRVYIAKQDDKPVAAVLEATAPDGYSGAIQLLVGADFNGTVLGTRVTEHHETPGLGDKIELRLSDWITHFAGKKISGADDAHWAVKKDGGDFDQFTGATITPRAVVNAVKRAGLYAQTLPAQLSQLPACGE	–	6.171 ± 0.022	5.52 ± 1.2	3.07 ± 0.086	5.7 ± 0.36	10.6 ± 1.6	5.75 ± 0.07	11.9 ± 0.64	5.82 ± 0.13	11.9 ± 0.49	5.83 ± 1.8	6.06 ± 0.48
MEHISTTTLIIILIIMVVISAYFSGSETGMMTLNRYRLRHMAKQGNRSAKRVEKLLRKPDRLISLVLIGNNLVNILASALGTIVGMRLYGDAGVAIATGVLTFVVLVFAEVLPKTIAALYPEKVAYPSSFLLAPLQILMMPLVWLLNAITRMLMRMMGIKTDIVVSGSLSKEELRTIVHESRSQISRRNQDMLLSVLDLEKMTVDDIMVPRSEIIGIDINDDWKSILRQLSHSPHGRIVLYRDSLDDAISMLRVREAWRLMSEKKEFTKETMLRAADEIYFVPEGTPLSTQLVKFQRNKKKVGLVVNEYGDIQGLVTVEDILEEIVGDFTTSMSPTLAEEVTPQNDGSVIIDGTANVREINKAFNWHLPEDDARTVNGVILEALEEIPVAGTRVRIGEYDIDILDVQDNMIKQVKVFPVKPLRESVAE	6.26 ± 0.14	6.04 ± 0.47	–	3.02 ± 0.34	6.47 ± 1.1	9.51 ± 2.4	6.56 ± 0.41	11.6 ± 1	6 ± 0.074	10.9 ± 1	6.45 ± 0.94	5.75 ± 0.47
MKLSRISAINWNKISDDKDLEVWNRLTSNFWLPEKVPLSNDIPAWQTLTVVEQQLTMRVFTGLTLLDTLQNVIGAPSLMPDALTPHEEAVLSNISFMEAVHARSYSSIFSTLCQTKDVDAAYAWSEENAPLQRKAQIIQQHYRGDDPLKKKIASVFLESFLFYSGFWLPMYFSSRGKLTNTADLIRLIIRDEAVHGYYIGYKYQKNMEKISLGQREELKSFAFDLLLELYDNELQYTDELYAETPWADDVKAFLCYNANKALMNLGYEPLFPAEMAEVNPAILAALSPNADENHDFFSGSGSSYVMGKAVETEDEDWNF	3.14 ± 0.99	–	–	2.18 ± 0.23	3.25 ± 0.41	4.27	1.85	–	–	6.6	3.43 ± 1.1	2.03
MNQIFMVIFLVLSGFIVGNVWSDRGWQKKWAERDAAALSQEVNAQFAARIIEQGRTIARDEAVKDAQQKSAEISARAAYLSDSVNQLRAEAKKYAIRLDAAKHTADLAAAVRGKTTKTAEGMLTNMLGDIAAEAQLYAEIADERYIAGVTCQQIYESLRDKKHQM	–	–	–	–	–	–	–	–	–	9.42	–	–
MKKLKLHGFNNLTKSLSFCIYDICYAKTAEERDGYIAYIDELYNANRLTEILSETCSIIGANILNIARQDYEPQGASVTILVSEEPVDPKLIDKTEHPGPLPETVVAHLDKSHICVHTYPESHPEGGLCTFRADIEVSTCGVISPLKALNYLIHQLESDIVTIDYRVRGFTRDINGMKHFIDHEINSIQNFMSDDMKALYDMVDVNVYQENIFHTKMLLKEFDLKHYMFHTKPEDLTDSERQEITAALWKEMREIYYGRNMPAV [P0A7F6]	4.12 ± 0.42	3.29 ± 0.22	3.67 ± 0.29	2.8 ± 0.15	4.99	9.17 ± 0.37	2.928 ± 0.015	4.17 ± 0.036	4.78 ± 0.48	7.61 ± 1.4	–	3.3 ± 0.2
